Measurements from patent US20190359687A1.
Substitutions are numbered along the chain they refer to. Numbers in names are those of the source. One block for each binder: values may come before it.

Tests used:
[1] = target: purified human glycophorin A protein (Sigma, cat # G5017) (human) (UniProt P02724); experiment: ELISA, native hGPA
[2] = target: recombinant human GPA ectodomain (human) (UniProt P02724); experiment: ELISA, rec hGPA ectodomain
[3] = target: human glycophorin A on human red blood cells or red blood cell membranes (human) (UniProt P02724); experiment: ELISA, Fab on coated human RBC membranes
[4] = target: T1, GP5-12 alanine scanning peptide (human); experiment: alanine scanning peptide ELISA
T1 sequence (peptide, N-terminal biotin): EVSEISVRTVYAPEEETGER

[5] = target: T2, GP5-15 alanine scanning peptide (human); experiment: alanine scanning peptide ELISA
T2 sequence (peptide, N-terminal biotin): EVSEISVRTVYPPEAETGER

[6] = target: T3, GP5-10 alanine scanning peptide (human); experiment: alanine scanning peptide ELISA
T3 sequence (peptide, N-terminal biotin): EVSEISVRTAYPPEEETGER

[7] = target: human glycophorin A on human red blood cells or red blood cell membranes (human) (UniProt P02724); experiment: scFv 7 ug/ml on intact human RBC, unbound scFv by ELISA; pre-dilution
[8] = target: human glycophorin A on human red blood cells or red blood cell membranes (human) (UniProt P02724); experiment: scFv on intact human RBC, unbound scFv by ELISA; 20 min after 200-fold dilution
[9] = target: human glycophorin A on human red blood cells or red blood cell membranes (human) (UniProt P02724); experiment: scFv on intact human RBC, unbound scFv by ELISA; 120 min after 200-fold dilution
[10] = target: human glycophorin A on human red blood cells or red blood cell membranes (human) (UniProt P02724); experiment: scFv on intact human RBC, unbound scFv by ELISA; 60 min after 200-fold dilution
[11] = target: human glycophorin A on human red blood cells or red blood cell membranes (human) (UniProt P02724); experiment: scFv on intact human RBC, unbound scFv by ELISA; 0 min after 200-fold dilution
[12] = target: human glycophorin A on human red blood cells or red blood cell membranes (human) (UniProt P02724); experiment: scFv on intact human RBC, unbound scFv by ELISA; 5 min after 200-fold dilution

binding by ELISA relative to parental [1]: 0.06
B1: TPP-5321 (Fab, V domains shown)
VH: EVQLVQSGAEVKKPGASVKVSCKASGYTFTTYTIHWVRQAPGQGLEWIGIINPSSDYTRYNPKFKDRVTLTTDKSTSTAYMELRSLRSDDTAVYYCQTGTRDYWGQGTTVTVSS
VL: DIQLTQSPSFLSASVGDRVTITCSAASSVSYIYWFQQKPGKAPKLLIYSTSTLPSGVPSRFSGSGSGTEYTLTISSLQPEDFATYYCHQRNSFPFTFGQGTKLEIKR

binding by ELISA relative to parental [1]: 0.06
B2: TPP-5336 (Fab, V domains shown)
VH: B1 VH with I50Y, T98R
VL: B1 VL

binding by ELISA relative to parental [2]: 0.09
B3: TPP-5349 (Fab, V domains shown)
VH: B1 VH with I50Y
VL: B1 VL with T50A

binding in ELISA relative to parental Fab (relative to parental Fab) [3]: 0.3
B4: TPP-5339, Hu6C12-24 Fab variant VH: (E1Q, I48M, L70M, T72R, K74T, R84S, D89E, Q97A, T98R) (Fab, V domains shown)
VH: B1 VH with E1Q, I48M, I50Y, L70M, T72R, K74T, R84S, D89E, Q97A, T98R
VL: B1 VL

binding by ELISA relative to parental [1]: 0.04
B5: TPP-5346 (Fab, V domains shown)
VH: B1 VH with I50Y
VL: B1 VL with Y33A

binding by ELISA relative to parental [1]: 0.07
B6: TPP-5325 (Fab, V domains shown)
VH: B1 VH with I50Y, R59S
VL: B1 VL

percent reduction of binding [4]: > 95%
percent reduction of binding [5]: > 95%
percent reduction of binding [6]: > 95%
B7: TPP-5906 Fab (Fab, V domains shown)
VH: B1 VH with I48M, I50Y, D56G, D66G, L70M, T72R
VL: B1 VL with S24R, A26S, S49A, P54Q, F95Y

binding by ELISA relative to parental [1]: 0.04
B8: TPP-5353 (Fab, V domains shown)
VH: B1 VH with I50Y
VL: B1 VL with R90L

percentage of input scFv antibody bound [7]: 100%
percentage of input scFv antibody bound [8]: 0%
percentage of input scFv antibody bound [9]: 0%
percentage of input scFv antibody bound [10]: 3%
percentage of input scFv antibody bound [11]: 90%
percentage of input scFv antibody bound [12]: 16%
B9: TPP-5906 parental scFv (humanized and germlined 6C12) (scFv)
scFv: DIQLTQSPSFLSASVGDRVTITCRASSSVSYIYWFQQKPGKAPKLLIYATSTLQSGVPSRFSGSGSGTEYTLTISSLQPEDFATYYCHQRNSFPYTFGQGTKLEIKGGGGSGGGGSGGGGSGGGGSEVQLVQSGAEVKKPGASVKVSCKASGYTFTTYTIHWVRQAPGQGLEWMGYINPSSGYTRYNPKFKGRVTMTRDKSTSTAYMELRSLRSDDTAVYYCQTGTRDYWGQGTTVTVSS
